{"source": "paper PMC12850475", "key": {"Protein A (SpA) [1]": {"target": "Protein A (SpA) (UniProt P38507)", "test": "SPR"}, "Protein A (SpA) [2]": {"target": "Protein A (SpA) (UniProt P38507)", "test": "SPR; Protein A amine-coupled to a CM5 chip (channel 2, 122 RU); antibodies eluted by pH (50 mM sodium acetate pH 3.0) as analyte at 12.5 and 25 µg/mL in HBS-P; qualitative; percent able to bind calculated from a standard curve; triplicate"}}}
{"substance": "human Immunoglobulin G purified from human blood plasma (antibody)", "values": [{"measurement": "percentage of antibody still able to bind", "setting": "Protein A (SpA) [1]", "result": 74.8, "unit": "%"}, {"measurement": "percentage of antibody still able to bind", "setting": "Protein A (SpA) [2]", "result": 46.7, "unit": "%"}]}
